The target in this assay is mouse uPAR on the surface of NCTC L929 cells (mouse) (UniProt P35456). The experiment in a line: FACS, NCTC L929 mouse cells, secondary alone. A general note: A flow cytometer gives signals particle by particle.
mouse uPAR on the surface of NCTC L929 cells (mouse), sequence (P35456 24-298): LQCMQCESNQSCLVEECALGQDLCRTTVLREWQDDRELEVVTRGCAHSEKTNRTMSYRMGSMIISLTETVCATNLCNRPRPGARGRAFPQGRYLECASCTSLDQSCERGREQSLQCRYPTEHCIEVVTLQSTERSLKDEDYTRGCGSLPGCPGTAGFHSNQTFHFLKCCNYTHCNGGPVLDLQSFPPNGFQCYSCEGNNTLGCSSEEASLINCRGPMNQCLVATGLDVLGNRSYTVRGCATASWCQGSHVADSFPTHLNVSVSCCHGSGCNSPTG

For the substance “secondary antibody alone for mouse antibodies”, the X Geo mean amounted to 3.22.

Substance “secondary antibody alone for rat antibodies” returned a X Geo mean of 13.1.

As to “secondary antibody alone, Cy5-labeled goat anti-human IgG Fc”, the X Geo mean worked out at 7.63.

The values are drawn from patent publication US20080152587A1.
